In one test the target is HLA-A*01:01. Nature of the test: IEDB peptide-MHC binding, purified MHC/direct/fluorescence; filed as Kd, often an IC50 or EC50 that approximates it; ≥ and ≤ were set here for values at or beyond the usual limits of such assays.
Another test has as its target HLA-A*11:01. Described as above.
The next test deals with HLA-A*24:03. The description is as above. Conditions: source organism: Camelpox virus M-96.
In a further test the target is HLA-A*26:01. The test is described as above.
The next test concerns the target HLA-A*26:03. Described as above. Conditions: source organism: Variola virus.
For a further test, the target named is HLA-A*31:01. Described as above.
The target of a further test is HLA-A*69:01. The description is as above.
A further test addresses HLA-B*08:02. The description is as above. Conditions: source organism: Variola virus.
The target in test [1] is HLA-B*15:01. The test is described as above.
The target in the next test is HLA-B*58:01. Described as above.
The target in test [2] is HLA-A*02:01. The experiment in a line: IEDB peptide-MHC binding, purified MHC/competitive/fluorescence; filed as Kd, often an IC50 or EC50 that approximates it; ≥ and ≤ were set here for values at or beyond the usual limits of such assays. Conditions: source organism: Variola virus.
A further test deals with HLA-A*26:02. The test is described as above. Conditions: source organism: Variola virus.
The target in a further test is HLA-A*68:02. The test is described as above. Conditions: source organism: Variola virus.
A further test deals with HLA-B*07:02. Described as above. Conditions: source organism: Variola virus.
The target of test [3] is HLA-B*08:01. The test is described as above.
Test [4] concerns the target HLA-B*15:17. Described as above. Conditions: source organism: Variola virus.
The target of test [5] is HLA-B*18:01. The description is as above. Conditions: source organism: Variola virus.
The target of test [6] is HLA-B*57:01. The test is described as above. Conditions: source organism: Variola virus.
Test [7] addresses HLA-A*02:01. The experiment in a line: IEDB peptide-MHC binding, purified MHC/direct/fluorescence; filed as Kd, often an IC50 or EC50 that approximates it; ≥ and ≤ were set here for values at or beyond the usual limits of such assays. Conditions: source organism: Mycobacterium tuberculosis.
In another test the target is HLA-A*03:01. Described as above. Conditions: source organism: Mycobacterium tuberculosis.
For test [8], the target named is HLA-B*08:01. The description is as above. Conditions: source organism: Mycobacterium tuberculosis str. Haarlem.
Test [9] concerns the target HLA-B*15:17. The test is described as above. Conditions: source organism: Mycobacterium tuberculosis.
Test [10] addresses HLA-B*18:01. The test is described as above. Conditions: source organism: Mycobacterium tuberculosis.
The next test deals with HLA-B*27:05. The test is described as above. Conditions: source organism: Mycobacterium tuberculosis.
Another test has as its target HLA-B*38:01. The description is as above. Conditions: source organism: Mycobacterium tuberculosis str. Haarlem.
The target in the next test is HLA-B*39:01. The test is described as above. Conditions: source organism: Mycobacterium tuberculosis str. Haarlem.
A further test concerns the target HLA-B*40:01. The test is described as above. Conditions: source organism: Mycobacterium tuberculosis.
For another test, the target named is HLA-B*46:01. The test is described as above. Conditions: source organism: Mycobacterium tuberculosis.
Another test concerns the target HLA-B*48:01. The test is described as above. Conditions: source organism: Mycobacterium tuberculosis.
Another test has as its target HLA-B*51:01. The test is described as above. Conditions: source organism: Mycobacterium tuberculosis.
Test [11] concerns the target HLA-B*57:01. Described as above. Conditions: source organism: Mycobacterium tuberculosis.
For a further test, the target named is HLA-B*15:09. Described as above. Conditions: source organism: Mycobacterium tuberculosis str. Haarlem.
The next test deals with HLA-A*32:15. The experiment in a line: IEDB peptide-MHC binding, purified MHC/competitive/fluorescence; filed as Kd, often an IC50 or EC50 that approximates it; ≥ and ≤ were set here for values at or beyond the usual limits of such assays. Conditions: source organism: Mycobacterium tuberculosis C.
Test [12] concerns the target HLA-B*15:01. The description is as above. Conditions: source organism: Mycobacterium tuberculosis C.
The next test addresses HLA-B*15:42. Described as above. Conditions: source organism: Mycobacterium tuberculosis C.
The next test addresses HLA-B*45:06. The test is described as above. Conditions: source organism: Mycobacterium tuberculosis C.
The target in a further test is HLA-B*83:01. The description is as above. Conditions: source organism: Mycobacterium tuberculosis C.
The mark [13] stands for this setting: source organism: Camelpox virus M-96.
Setting [14] is: source organism: Mycobacterium tuberculosis.
Setting [15] is: source organism: Mycobacterium tuberculosis str. Haarlem.

Turning to EYKKFIATF, the Kd was at least 20 µM with HLA-A*01:01 (setting [13]); at least 20 µM with HLA-A*11:01 (setting [13]); 0.032 µM with HLA-A*24:03; at least 20 µM with HLA-A*26:01 (source organism: Variola virus); at least 20 µM with HLA-A*26:03; at least 20 µM with HLA-A*31:01 (setting [13]). Further, the Kd in the test with HLA-A*69:01 (setting [13]) is at least 20 µM; with HLA-B*08:02 it was at least 20 µM; with HLA-B*15:01 [1] (setting [13]) it was at least 20 µM; with HLA-B*58:01 (source organism: Variola virus) it was 0.256 µM; with HLA-A*02:01 [2], at least 20 µM; in the test with HLA-A*26:02, 0.818 µM. Besides, the Kd with HLA-A*68:02 was at least 20 µM; in the test with HLA-B*07:02 it was 3 µM; in the test with HLA-B*08:01 [3] (source organism: Variola virus), at least 20 µM; with HLA-B*15:17 [4], 0.865 µM; with HLA-B*18:01 [5], 0.0583 µM; with HLA-B*57:01 [6] it was 4.85 µM.
For APAKKAAPA, the Kd with HLA-A*01:01 (setting [14]), with HLA-A*02:01 [7], with HLA-A*03:01, in the test with HLA-A*11:01 (setting [14]), with HLA-A*31:01 (setting [14]) and with HLA-A*69:01 (setting [14]) was at least 20 µM throughout. In addition, the Kd with HLA-B*08:01 [8] is 0.077 µM; with HLA-B*15:01 [1] (setting [14]), at least 20 µM; in the test with HLA-B*15:17 [9], at least 20 µM; with HLA-B*18:01 [10], at least 20 µM; with HLA-B*27:05, at least 20 µM; in the test with HLA-B*38:01 it was at least 20 µM. Moreover, the Kd with HLA-B*39:01, with HLA-B*40:01, in the test with HLA-B*46:01, with HLA-B*48:01, in the test with HLA-B*51:01 and in the test with HLA-B*57:01 [11] was at least 20 µM in each case. This sequence also showed a Kd with HLA-B*58:01 (setting [14]) of at least 20 µM.
With SPRSRNRSF, the equilibrium dissociation constant (Kd) with HLA-A*01:01 (setting [14]), in the test with HLA-A*02:01 [7], with HLA-A*03:01, with HLA-A*11:01 (setting [14]), in the test with HLA-A*26:01 (setting [15]) and with HLA-A*31:01 (setting [14]) was at least 20 µM in each case. Moreover, the Kd with HLA-A*69:01 (setting [14]), in the test with HLA-B*15:01 [1] (setting [14]), with HLA-B*15:17 [9], in the test with HLA-B*18:01 [10], in the test with HLA-B*27:05 and with HLA-B*38:01 was at least 20 µM each time. For the same sequence, the Kd with HLA-B*39:01, with HLA-B*40:01, with HLA-B*46:01, in the test with HLA-B*48:01, with HLA-B*51:01 and with HLA-B*57:01 [11] was at least 20 µM throughout. Further, the Kd is at least 20 µM with HLA-B*58:01 (setting [14]) and 0.123 µM with HLA-B*08:01 [3] (source organism: Mycobacterium tuberculosis variant bovis BCG str. Pasteur 1173P2).
For LPAEVRAAF, the dissociation constant (Kd) with HLA-A*01:01 (setting [14]) was 4.61 µM; with HLA-A*02:01 [7] it was at least 20 µM; with HLA-A*03:01, at least 20 µM; with HLA-A*11:01 (setting [14]), at least 20 µM; in the test with HLA-A*26:01 (setting [15]) it was 0.889 µM; with HLA-A*31:01 (setting [14]) it was at least 20 µM. The dissociation constant (Kd) with HLA-A*69:01 (setting [14]) is 1.31 µM; with HLA-B*15:09, at least 20 µM; with HLA-B*15:17 [9] it was at least 20 µM; with HLA-B*27:05, at least 20 µM; in the test with HLA-B*40:01, at least 20 µM; in the test with HLA-B*46:01, at least 20 µM. The Kd with HLA-B*48:01 is at least 20 µM; in the test with HLA-B*51:01, at least 20 µM; in the test with HLA-B*57:01 [11] it was at least 20 µM; with HLA-B*58:01 (setting [14]), at least 20 µM; with HLA-A*32:15, 0.757 µM; in the test with HLA-B*15:01 [12], at least 20 µM. The Kd in the test with HLA-B*15:42 was at least 5 µM; with HLA-B*45:06, at least 5 µM; in the test with HLA-B*83:01, 0.0676 µM.

The record behind these values is the Immune Epitope Database (IEDB).
